Experimental data reported in patent publication US20200087347 (published 2020).
[ ]: non-standard residue; d: D form. NMeK = CN[C@@H](CCCCN)C(=O)O

T1: integrin αvβ5 (human, UniProt P06756)
T1 chain 1: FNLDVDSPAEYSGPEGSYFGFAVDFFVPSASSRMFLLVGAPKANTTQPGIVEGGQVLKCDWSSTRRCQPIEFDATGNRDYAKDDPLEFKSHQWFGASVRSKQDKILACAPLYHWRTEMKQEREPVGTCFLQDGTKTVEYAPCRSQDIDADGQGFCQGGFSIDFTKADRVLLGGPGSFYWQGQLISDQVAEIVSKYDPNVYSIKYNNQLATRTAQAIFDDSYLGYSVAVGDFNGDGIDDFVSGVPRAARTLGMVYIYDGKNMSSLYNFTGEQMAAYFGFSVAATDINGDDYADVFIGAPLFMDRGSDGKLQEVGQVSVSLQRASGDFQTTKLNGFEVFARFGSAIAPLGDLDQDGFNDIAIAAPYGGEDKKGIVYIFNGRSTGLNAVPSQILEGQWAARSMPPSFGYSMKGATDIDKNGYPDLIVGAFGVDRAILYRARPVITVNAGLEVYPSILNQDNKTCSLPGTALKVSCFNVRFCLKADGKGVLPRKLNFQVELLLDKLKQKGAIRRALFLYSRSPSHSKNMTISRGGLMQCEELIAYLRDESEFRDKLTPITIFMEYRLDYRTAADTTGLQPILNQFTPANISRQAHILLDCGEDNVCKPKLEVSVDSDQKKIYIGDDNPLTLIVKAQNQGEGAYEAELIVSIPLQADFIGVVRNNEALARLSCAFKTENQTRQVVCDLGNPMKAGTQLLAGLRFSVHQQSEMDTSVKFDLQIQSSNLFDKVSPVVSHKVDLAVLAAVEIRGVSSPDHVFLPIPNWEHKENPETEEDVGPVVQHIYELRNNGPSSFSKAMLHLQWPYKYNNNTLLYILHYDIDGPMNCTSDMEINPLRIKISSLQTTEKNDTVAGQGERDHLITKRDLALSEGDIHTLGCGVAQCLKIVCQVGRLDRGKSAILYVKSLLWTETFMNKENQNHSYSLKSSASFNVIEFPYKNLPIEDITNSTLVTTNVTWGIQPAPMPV
T1 chain 2: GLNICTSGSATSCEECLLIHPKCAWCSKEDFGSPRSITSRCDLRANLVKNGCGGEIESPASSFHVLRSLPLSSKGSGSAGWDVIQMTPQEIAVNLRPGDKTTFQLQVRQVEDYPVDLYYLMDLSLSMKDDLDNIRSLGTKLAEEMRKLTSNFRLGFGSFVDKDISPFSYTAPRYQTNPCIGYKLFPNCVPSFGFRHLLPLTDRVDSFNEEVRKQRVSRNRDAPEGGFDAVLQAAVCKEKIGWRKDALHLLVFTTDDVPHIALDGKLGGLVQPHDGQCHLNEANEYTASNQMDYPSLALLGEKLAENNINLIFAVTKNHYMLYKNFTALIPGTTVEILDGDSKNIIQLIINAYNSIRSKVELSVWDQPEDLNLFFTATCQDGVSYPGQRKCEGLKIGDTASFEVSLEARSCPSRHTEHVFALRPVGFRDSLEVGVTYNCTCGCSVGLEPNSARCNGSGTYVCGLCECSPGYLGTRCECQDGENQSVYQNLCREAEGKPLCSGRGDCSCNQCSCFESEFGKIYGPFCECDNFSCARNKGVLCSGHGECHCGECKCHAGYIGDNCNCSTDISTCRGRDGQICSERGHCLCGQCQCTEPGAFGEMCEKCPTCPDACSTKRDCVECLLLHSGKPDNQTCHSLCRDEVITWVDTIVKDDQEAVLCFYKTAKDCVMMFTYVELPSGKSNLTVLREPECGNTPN

T2: integrin αvβ8 (human, UniProt P06756)
T2 chain 1: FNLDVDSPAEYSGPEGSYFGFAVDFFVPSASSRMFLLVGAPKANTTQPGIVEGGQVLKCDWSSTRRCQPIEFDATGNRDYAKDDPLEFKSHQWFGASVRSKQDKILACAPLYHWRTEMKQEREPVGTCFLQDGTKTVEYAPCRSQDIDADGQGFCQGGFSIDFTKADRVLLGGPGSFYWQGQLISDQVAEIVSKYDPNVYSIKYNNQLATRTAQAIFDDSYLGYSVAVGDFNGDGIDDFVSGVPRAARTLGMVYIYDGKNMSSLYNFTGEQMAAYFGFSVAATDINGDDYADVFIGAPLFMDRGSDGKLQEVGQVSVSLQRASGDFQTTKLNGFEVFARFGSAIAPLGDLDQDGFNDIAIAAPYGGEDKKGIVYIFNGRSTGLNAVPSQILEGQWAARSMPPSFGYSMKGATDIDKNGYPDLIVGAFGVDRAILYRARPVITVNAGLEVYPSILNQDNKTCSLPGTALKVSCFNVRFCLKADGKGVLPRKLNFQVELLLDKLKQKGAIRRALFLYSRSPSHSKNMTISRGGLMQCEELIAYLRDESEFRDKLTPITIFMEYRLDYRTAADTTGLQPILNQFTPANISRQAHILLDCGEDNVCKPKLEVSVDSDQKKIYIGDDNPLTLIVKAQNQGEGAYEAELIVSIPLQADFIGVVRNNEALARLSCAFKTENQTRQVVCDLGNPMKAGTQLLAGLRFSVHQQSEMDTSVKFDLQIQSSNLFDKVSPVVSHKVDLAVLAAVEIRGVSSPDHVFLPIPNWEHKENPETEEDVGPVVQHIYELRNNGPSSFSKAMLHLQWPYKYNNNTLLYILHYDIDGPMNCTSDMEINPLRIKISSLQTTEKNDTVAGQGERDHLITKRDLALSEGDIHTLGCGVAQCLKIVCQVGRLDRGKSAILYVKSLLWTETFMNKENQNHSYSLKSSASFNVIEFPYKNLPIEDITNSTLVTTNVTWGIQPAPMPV
T2 chain 2: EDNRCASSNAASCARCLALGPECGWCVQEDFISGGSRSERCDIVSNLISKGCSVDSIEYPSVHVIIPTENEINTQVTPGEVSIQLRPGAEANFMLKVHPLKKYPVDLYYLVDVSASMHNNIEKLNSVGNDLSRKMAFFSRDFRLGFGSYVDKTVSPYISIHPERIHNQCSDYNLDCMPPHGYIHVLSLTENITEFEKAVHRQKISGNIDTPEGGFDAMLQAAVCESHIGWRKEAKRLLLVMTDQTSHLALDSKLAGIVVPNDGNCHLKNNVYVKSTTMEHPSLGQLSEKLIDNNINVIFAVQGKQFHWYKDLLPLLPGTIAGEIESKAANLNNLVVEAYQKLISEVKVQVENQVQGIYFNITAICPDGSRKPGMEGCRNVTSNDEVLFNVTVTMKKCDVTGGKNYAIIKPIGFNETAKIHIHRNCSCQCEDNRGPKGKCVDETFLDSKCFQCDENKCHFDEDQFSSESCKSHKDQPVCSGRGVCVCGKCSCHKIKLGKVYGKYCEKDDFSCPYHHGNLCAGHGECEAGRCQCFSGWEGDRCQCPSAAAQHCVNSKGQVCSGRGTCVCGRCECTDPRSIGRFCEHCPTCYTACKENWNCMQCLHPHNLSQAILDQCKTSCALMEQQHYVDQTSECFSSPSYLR

T3: integrin αvβ6 (human, UniProt P06756)
T3 chain 1: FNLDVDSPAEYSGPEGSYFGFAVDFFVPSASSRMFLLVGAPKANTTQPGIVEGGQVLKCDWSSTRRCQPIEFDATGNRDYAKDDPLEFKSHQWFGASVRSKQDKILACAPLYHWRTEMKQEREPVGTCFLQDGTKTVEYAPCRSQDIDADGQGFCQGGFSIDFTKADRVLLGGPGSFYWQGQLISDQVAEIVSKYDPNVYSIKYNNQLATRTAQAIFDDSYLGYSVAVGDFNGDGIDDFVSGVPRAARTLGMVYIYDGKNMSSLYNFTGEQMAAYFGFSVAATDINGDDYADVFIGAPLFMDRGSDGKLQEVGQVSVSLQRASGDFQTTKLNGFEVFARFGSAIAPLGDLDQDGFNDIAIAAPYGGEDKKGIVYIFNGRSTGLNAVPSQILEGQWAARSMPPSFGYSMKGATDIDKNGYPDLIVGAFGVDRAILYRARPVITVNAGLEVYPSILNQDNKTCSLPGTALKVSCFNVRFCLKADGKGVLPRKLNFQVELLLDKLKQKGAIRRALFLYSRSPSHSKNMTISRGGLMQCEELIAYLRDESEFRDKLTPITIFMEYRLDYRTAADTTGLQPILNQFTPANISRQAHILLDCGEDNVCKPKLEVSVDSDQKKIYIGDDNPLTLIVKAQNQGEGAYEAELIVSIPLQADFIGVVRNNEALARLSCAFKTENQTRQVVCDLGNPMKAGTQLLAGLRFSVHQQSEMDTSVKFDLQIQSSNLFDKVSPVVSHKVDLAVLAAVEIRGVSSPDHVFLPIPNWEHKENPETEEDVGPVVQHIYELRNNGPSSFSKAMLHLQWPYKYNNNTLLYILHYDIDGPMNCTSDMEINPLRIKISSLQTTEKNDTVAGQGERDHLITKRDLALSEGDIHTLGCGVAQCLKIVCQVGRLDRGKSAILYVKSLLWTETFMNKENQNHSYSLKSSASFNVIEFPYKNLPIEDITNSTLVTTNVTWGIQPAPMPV
T3 chain 2: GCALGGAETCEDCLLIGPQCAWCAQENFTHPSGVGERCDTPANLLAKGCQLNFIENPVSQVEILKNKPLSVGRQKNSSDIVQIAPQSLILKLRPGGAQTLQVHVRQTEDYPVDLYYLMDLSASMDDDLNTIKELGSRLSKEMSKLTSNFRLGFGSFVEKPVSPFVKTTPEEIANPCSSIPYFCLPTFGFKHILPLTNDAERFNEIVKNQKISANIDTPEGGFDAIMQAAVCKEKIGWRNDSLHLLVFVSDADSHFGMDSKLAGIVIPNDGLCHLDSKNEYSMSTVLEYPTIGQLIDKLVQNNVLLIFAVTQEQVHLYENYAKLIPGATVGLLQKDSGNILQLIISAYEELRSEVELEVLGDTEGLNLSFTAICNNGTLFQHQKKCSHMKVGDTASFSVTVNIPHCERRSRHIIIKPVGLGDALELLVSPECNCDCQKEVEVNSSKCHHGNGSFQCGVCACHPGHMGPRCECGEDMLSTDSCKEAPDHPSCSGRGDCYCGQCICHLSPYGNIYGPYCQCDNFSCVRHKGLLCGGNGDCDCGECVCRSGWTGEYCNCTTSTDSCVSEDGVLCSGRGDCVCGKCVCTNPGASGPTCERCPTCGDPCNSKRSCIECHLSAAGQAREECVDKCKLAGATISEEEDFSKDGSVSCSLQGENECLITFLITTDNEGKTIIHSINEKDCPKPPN

T4: integrin αvβ3 (human, UniProt P06756)
T4 chain 1: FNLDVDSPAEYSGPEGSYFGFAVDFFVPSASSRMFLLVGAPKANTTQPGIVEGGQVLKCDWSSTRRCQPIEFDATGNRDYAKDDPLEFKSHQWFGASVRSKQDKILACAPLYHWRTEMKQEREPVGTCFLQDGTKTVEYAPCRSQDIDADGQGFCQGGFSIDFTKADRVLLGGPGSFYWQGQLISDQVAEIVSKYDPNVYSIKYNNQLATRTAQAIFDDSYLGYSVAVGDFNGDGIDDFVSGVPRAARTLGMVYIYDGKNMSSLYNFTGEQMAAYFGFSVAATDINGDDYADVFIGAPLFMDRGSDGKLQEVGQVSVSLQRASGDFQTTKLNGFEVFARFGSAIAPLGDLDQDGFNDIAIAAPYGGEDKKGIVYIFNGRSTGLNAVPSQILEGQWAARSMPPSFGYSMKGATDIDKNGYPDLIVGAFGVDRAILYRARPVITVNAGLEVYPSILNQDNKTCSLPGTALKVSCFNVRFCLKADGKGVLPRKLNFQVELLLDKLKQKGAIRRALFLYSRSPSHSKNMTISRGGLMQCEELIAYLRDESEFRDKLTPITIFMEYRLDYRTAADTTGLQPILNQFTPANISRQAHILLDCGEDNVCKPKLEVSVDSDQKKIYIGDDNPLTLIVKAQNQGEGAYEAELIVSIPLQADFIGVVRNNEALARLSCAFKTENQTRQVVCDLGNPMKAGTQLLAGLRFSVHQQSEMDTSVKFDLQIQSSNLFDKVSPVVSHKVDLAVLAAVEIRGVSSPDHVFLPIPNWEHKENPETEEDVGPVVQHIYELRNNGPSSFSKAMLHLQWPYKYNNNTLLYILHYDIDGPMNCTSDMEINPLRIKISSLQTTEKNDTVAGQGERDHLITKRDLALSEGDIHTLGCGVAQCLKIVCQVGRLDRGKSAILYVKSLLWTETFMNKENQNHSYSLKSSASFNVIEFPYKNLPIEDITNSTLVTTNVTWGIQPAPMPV
T4 chain 2: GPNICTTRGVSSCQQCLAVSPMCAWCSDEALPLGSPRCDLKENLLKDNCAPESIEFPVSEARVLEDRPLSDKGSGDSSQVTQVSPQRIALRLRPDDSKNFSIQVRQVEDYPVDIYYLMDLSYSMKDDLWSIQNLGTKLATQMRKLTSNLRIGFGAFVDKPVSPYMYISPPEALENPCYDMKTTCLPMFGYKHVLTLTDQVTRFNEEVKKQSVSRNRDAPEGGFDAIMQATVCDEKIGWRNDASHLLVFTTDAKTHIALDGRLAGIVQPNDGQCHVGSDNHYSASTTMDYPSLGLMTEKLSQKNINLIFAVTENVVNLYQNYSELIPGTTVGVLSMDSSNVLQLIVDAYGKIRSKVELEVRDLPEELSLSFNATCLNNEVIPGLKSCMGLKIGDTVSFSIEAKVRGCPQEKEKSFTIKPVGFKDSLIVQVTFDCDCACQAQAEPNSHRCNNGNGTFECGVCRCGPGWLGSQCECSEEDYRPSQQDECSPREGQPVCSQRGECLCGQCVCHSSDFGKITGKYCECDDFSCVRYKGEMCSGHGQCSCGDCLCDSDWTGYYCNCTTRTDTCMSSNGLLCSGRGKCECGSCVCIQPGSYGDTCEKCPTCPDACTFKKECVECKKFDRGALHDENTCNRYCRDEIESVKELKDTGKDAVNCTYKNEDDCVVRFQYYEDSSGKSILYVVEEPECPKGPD


Tests used:
Test in all cases: competition
[1] = biological target: T1, integrin αvβ5
[2] = biological target: integrin α5β1 (human, UniProt P08648)
Chain of integrin α5β1 (P08648 42-1049, chain 1 of 2): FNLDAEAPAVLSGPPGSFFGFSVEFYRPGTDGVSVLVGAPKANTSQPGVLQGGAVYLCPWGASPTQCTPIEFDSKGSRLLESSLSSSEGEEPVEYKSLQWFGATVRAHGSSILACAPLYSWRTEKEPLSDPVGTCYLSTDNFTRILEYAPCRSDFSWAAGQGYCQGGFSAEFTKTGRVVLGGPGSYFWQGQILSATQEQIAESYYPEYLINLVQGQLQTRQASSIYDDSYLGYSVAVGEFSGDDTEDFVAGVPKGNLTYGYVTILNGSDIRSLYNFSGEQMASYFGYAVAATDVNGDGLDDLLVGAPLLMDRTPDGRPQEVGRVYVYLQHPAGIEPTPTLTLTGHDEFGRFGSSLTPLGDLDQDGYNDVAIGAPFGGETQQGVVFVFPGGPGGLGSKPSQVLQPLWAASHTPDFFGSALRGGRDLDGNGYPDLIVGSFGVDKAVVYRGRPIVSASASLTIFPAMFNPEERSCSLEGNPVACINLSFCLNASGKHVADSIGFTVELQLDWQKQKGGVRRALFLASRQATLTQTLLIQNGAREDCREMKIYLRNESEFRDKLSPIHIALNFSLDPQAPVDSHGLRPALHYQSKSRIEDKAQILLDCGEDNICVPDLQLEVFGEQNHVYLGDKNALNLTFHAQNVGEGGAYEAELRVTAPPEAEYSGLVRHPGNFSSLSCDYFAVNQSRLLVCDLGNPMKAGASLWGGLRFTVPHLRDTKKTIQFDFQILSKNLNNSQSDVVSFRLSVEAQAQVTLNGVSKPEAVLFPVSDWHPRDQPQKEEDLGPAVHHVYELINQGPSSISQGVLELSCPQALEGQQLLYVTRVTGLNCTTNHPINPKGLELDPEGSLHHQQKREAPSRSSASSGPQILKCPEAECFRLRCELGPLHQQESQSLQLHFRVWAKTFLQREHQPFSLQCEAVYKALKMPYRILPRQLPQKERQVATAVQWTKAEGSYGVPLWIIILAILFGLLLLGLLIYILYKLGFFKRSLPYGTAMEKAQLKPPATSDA
Chain of integrin α5β1 (chain, as listed by the source, chain 2 of 2): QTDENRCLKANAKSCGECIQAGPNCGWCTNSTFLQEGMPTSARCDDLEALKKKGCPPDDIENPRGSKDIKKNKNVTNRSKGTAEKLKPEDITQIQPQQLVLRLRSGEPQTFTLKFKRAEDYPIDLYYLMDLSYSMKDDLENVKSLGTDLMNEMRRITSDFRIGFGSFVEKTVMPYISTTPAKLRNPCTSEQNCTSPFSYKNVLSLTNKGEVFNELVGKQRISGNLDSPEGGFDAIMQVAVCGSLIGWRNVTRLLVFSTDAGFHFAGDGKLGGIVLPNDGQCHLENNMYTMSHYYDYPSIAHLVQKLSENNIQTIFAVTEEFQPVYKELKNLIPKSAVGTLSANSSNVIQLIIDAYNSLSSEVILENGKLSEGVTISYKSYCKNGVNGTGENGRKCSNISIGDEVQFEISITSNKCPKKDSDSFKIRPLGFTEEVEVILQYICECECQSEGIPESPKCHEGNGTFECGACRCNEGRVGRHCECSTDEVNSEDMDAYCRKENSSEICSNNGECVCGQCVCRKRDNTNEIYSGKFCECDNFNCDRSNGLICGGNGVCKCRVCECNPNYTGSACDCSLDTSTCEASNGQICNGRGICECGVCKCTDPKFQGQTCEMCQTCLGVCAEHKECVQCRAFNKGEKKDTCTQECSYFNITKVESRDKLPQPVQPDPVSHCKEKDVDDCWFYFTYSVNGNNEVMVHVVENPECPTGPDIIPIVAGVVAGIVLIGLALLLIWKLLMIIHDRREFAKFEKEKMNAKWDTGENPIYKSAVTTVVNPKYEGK

[3] = biological target: T2, integrin αvβ8
[4] = biological target: integrin αIIbβ3 (human, UniProt P08514)
[5] = biological target: T3, integrin αvβ6
[6] = biological target: T4, integrin αvβ3

| IC50 [1] | IC50 [2] | IC50 [3] | IC50 [4] | IC50 [5] | IC50 [6] | Binder |
| --- | --- | --- | --- | --- | --- | --- |
| > 1000 nM | > 1000 nM | 0.93 nM | > 1000 nM | 210 nM | > 1000 nM | cyclo(RGDL[dP]PGL) [Compound 2] |
| > 1000 nM | > 1000 nM | 6 nM | > 1000 nM | 201 nM | 423 nM | cyclo(RGDL[dP][NMeK](Ac)GL) [Compound 9] |
